Values quoted from earlier work as cited in PMC3369218 (Biochemistry, 2012).

Conditions: for E′ (Fe^3+/Fe^2+): 25 °C, pH 7

Molecule | reduction potential | E′ (Fe^3+/Fe^2+)
Cld from I. dechloratans: chlorite dismutase from Ideonella dechloratans (protein, UniProt Q9F437 39-285, looked up) Chlorite dismutase: AMNTPVDRAKILSAPGVFVAFSTYKIRPDYFKVALAERKGAADEVMAVLEKHKEKVIVDAYLTRGYEAKSDYFLRVHAYDAVAAQAFLVDFRATRFGMYSDVTESLVGITKALNYISKDKSPDLNKGLSGATYAGDAPRFAFMIPVKKNADWWNLTDEQRLKEMETHTLPTLPFLVNVKRKLYHSTGLDDTDFITYFETNDLGAFNNLMLSLAKVPENKYHVRWGNPTVLGTIQPIENLVKTLSMGN | –21 mV | –0.021 V vs NHE
WT CcP from S. cerevisiae: wild-type cytochrome c peroxidase (protein, UniProt P00431 68-361, looked up) Cytochrome c peroxidase, …: TTPLVHVASVEKGRSYEDFQKVYNAIALKLREDDEYDNYIGYGPVLVRLAWHTSGTWDKHDNTGGSYGGTYRFKKEFNDPSNAGLQNGFKFLEPIHKEFPWISSGDLFSLGGVTAVQEMQGPKIPWRCGRVDTPEDTTPDNGRLPDADKDADYVRTFFQRLNMNDREVVALMGAHALGKTHLKNSGYEGPWGAANNVFTNEFYLNLLNEDWKLEKNDANNEQWDSKSGYMMLPTDYSLIQDPKYLSIVKEYANDQDKFFKDFSKAFEKLLENGITFPKDAPSPFIFKTLEEQGL | – | –0.189 V vs NHE
CcP(R48K) from S. cerevisiae: cytochrome c peroxidase R48K distal pocket mutant (protein, UniProt P00431 68-361, looked up, variant R48K) Cytochrome c peroxidase, …: TTPLVHVASVEKGRSYEDFQKVYNAIALKLREDDEYDNYIGYGPVLVKLAWHTSGTWDKHDNTGGSYGGTYRFKKEFNDPSNAGLQNGFKFLEPIHKEFPWISSGDLFSLGGVTAVQEMQGPKIPWRCGRVDTPEDTTPDNGRLPDADKDADYVRTFFQRLNMNDREVVALMGAHALGKTHLKNSGYEGPWGAANNVFTNEFYLNLLNEDWKLEKNDANNEQWDSKSGYMMLPTDYSLIQDPKYLSIVKEYANDQDKFFKDFSKAFEKLLENGITFPKDAPSPFIFKTLEEQGL | – | –0.186 V vs NHE
